Data taken from the Immune Epitope Database (IEDB).

Columns and labels:
[1] = biological target: HLA-A*01:01; experiment: IEDB peptide-MHC binding, purified MHC/direct/fluorescence; filed as Kd, often an IC50 or EC50 that approximates it; ≥ and ≤ were set here for values at or beyond the usual limits of such assays; details: source organism: Vibrio parahaemolyticus
[2] = biological target: HLA-A*02:01; experiment: as above; details: source organism: Vibrio parahaemolyticus
[3] = biological target: HLA-A*03:01; experiment: as above; details: source organism: Vibrio parahaemolyticus
[4] = biological target: HLA-A*11:01; experiment: as above; details: source organism: Vibrio parahaemolyticus
[5] = biological target: HLA-A*24:03; experiment: as above
[6] = biological target: HLA-A*26:01; experiment: as above; details: source organism: Vibrio parahaemolyticus
[7] = biological target: HLA-A*69:01; experiment: as above; details: source organism: Vibrio parahaemolyticus
[8] = biological target: HLA-B*07:02; experiment: as above; details: source organism: Vibrio parahaemolyticus
[9] = biological target: HLA-B*08:01; experiment: as above; details: source organism: Vibrio parahaemolyticus
[10] = biological target: HLA-B*27:05; experiment: as above; details: source organism: Vibrio parahaemolyticus
[11] = biological target: HLA-B*40:01; experiment: as above; details: source organism: Vibrio parahaemolyticus
[12] = biological target: HLA-B*44:02; experiment: as above; details: source organism: Vibrio parahaemolyticus
[13] = biological target: HLA-B*58:01; experiment: as above
[14] = biological target: HLA-B*15:03; experiment: IEDB peptide-MHC binding, purified MHC/competitive/radioactivity; filed as Kd, often an IC50 or EC50 that approximates it; ≥ and ≤ were set here for values at or beyond the usual limits of such assays
[15] = biological target: HLA-A*02:01; experiment: as above
[16] = biological target: HLA-A*02:06; experiment: as above; details: source organism: Dengue virus 2 Jamaica/1409/1983
[17] = biological target: HLA-A*02:17; experiment: as above
[18] = biological target: HLA-B*40:01; experiment: as above
[19] = biological target: HLA-B*44:02; experiment: as above
[20] = biological target: HLA-B*44:03; experiment: as above
[21] = biological target: HLA-A*30:01; experiment: as above; details: source organism: Vaccinia virus WR
[22] = biological target: HLA-A*32:01; experiment: as above
[23] = biological target: HLA-B*08:01; experiment: as above
[24] = biological target: HLA-B*15:01; experiment: as above; details: source organism: Vaccinia virus WR
[25] = biological target: HLA-A*02:12; experiment: IEDB peptide-MHC binding, purified MHC/direct/fluorescence; filed as Kd, often an IC50 or EC50 that approximates it; ≥ and ≤ were set here for values at or beyond the usual limits of such assays; details: source organism: dengue virus type 3
[26] = biological target: HLA-B*08:02; experiment: as above; details: source organism: dengue virus type 3
[27] = biological target: HLA-B*57:01; experiment: as above; details: source organism: Vibrio vulnificus
[28] = biological target: HLA-B*46:01; experiment: IEDB peptide-MHC binding, purified MHC/competitive/fluorescence; filed as Kd, often an IC50 or EC50 that approximates it; ≥ and ≤ were set here for values at or beyond the usual limits of such assays
[29] = biological target: HLA-A*23:01; experiment: IEDB peptide-MHC binding, purified MHC/competitive/radioactivity; filed as Kd, often an IC50 or EC50 that approximates it; ≥ and ≤ were set here for values at or beyond the usual limits of such assays
[30] = biological target: HLA-A*24:02; experiment: as above; details: source organism: Mammarenavirus tacaribeense
[31] = biological target: HLA-A*29:02; experiment: as above; details: source organism: Mammarenavirus tacaribeense
[32] = source organism: Vibrio parahaemolyticus
[33] = source organism: Vaccinia virus WR
[34] = source organism: Dengue virus 2 Jamaica/1409/1983
[35] = source organism: Dengue virus 1 Brazil/97-11/1997
[36] = source organism: Dengue virus 3 China/80-2/1980
[37] = source organism: Vaccinia virus Copenhagen
[38] = source organism: Dengue virus 4 Philippines/H241/1956

QYDDLHKKF
Kd [1]: ≥ 20000 nM
Kd [2]: ≥ 20000 nM
Kd [3]: ≥ 20000 nM
Kd [4]: ≥ 20000 nM
Kd [5, 32]: 62.6 nM
Kd [6]: ≥ 20000 nM
Kd [7]: ≥ 20000 nM
Kd [8]: ≥ 20000 nM
Kd [9]: ≥ 20000 nM
Kd [10]: ≥ 20000 nM
Kd [11]: ≥ 20000 nM
Kd [12]: ≥ 20000 nM
Kd [13, 32]: ≥ 20000 nM

FLSNCEKQF
Kd [14, 33]: 21 nM

LQMEDKAWLV
Kd [15, 34]: 3.64 nM
Kd [16]: 2.72 nM
Kd [17, 34]: 119 nM

SEIQLTDYGA
Kd [18, 35]: 972 nM
Kd [19, 35]: 149 nM
Kd [20, 35]: 42.6 nM

EKTQYTNDF
Kd [21]: 1340 nM
Kd [22, 33]: ≥ 77800 nM
Kd [23, 33]: ≥ 26700 nM
Kd [24]: 12700 nM
Kd [14, 33]: 832 nM

ESVKFGNSI
Kd [14, 33]: 102 nM

IIIPLSVSI
Kd [21]: 1290 nM
Kd [22, 33]: 69.6 nM
Kd [23, 33]: ≥ 31000 nM
Kd [24]: 298 nM
Kd [14, 33]: 1230 nM

AAAWYLWEV
Kd [16]: 3.38 nM
Kd [17, 34]: 1420 nM

GMLWMADVPL
Kd [15, 36]: 4.89 nM
Kd [17, 36]: 65.3 nM
Kd ([23]; source organism: Dengue virus 3 Singapore/8120/1995): 1420 nM

CMVICLLSF
Kd [14, 37]: 641 nM

ITNTEINSF
Kd [22, 33]: 413 nM
Kd [14, 33]: 421 nM

IMTSGVIPF
Kd [14, 37]: 0.223 nM

ILGAQALPV
Kd [15, 38]: 32.7 nM
Kd [17, 38]: 2550 nM

TLKRRSWPL
Kd [25]: 4 nM
Kd [26]: 88 nM
Kd ([23]; source organism: Dengue virus 3 Martinique/1243/1999): 1.18 nM

TEPEDIDCW
Kd [19, 38]: 1140 nM

KLVIFPSHL
Kd [14, 33]: 1170 nM

LAFSTRFSF
Kd [27]: 292 nM
Kd ([13]; source organism: Vibrio vulnificus): 144 nM
Kd ([28]; source organism: Vibrio vulnificus YJ016): 661 nM

AEMEEALRGL
Kd [18, 34]: 13 nM
Kd [19, 34]: 17.6 nM
Kd [20, 34]: 31.6 nM

LYGLITEQF
Kd ([5]; source organism: Mammarenavirus machupoense): 0.2 nM
Kd ([29]; source organism: Mammarenavirus tacaribeense): 3.98 nM
Kd [30]: 15.5 nM
Kd [31]: 2070 nM

TLYAVATTF
Kd ([28]; source organism: Dengue virus 2 Thailand/NGS-C/1944): ≥ 20000 nM
Kd [29, 34]: 134 nM
Kd [22, 34]: 81.3 nM

FSILFSNNF
Kd [14, 33]: 29.7 nM

HEMYWVSGV
Kd [19, 38]: 51.5 nM
